From patent publication US20220340684A1 (AGENCY FOR SCIENCE TECHNOLOGY AND RESEARCH, published 2022)

B1: Fc region SN 1 of FIG. 13 (IgG1 256P/433S/434H/440G) (other)
chain: PCPAPELLGGPSVFLFPPKPKDTLMISRPPEVTCVVVDVSHEDPEVKFNWYVDGVEVHNAKTKPREEQYNSTYRVVSVLTVLHQDWLNGKEYKCKVSNKALPAPIEKTISKAKGQPREPQVYTLPPSRDELTKNQVSLTCLVKGFYPSDIAVEWESNGQPENNYKTTPPVLDSDGSFFLYSKLTVDKSRWQQGNVFSCSVMHEALSHHYTQKGLSLSPGK
B2: Fc region SN 32 of FIG. 13 (IgG1 256P/433T/434R) (other)
chain: PCPAPELLGGPSVFLFPPKPKDTLMISRPPEVTCVVVDVSHEDPEVKFNWYVDGVEVHNAKTKPREEQYNSTYRVVSVLTVLHQDWLNGKEYKCKVSNKALPAPIEKTISKAKGQPREPQVYTLPPSRDELTKNQVSLTCLVKGFYPSDIAVEWESNGQPENNYKTTPPVLDSDGSFFLYSKLTVDKSRWQQGNVFSCSVMHEALTRHYTQKSLSLSPGK
B3: Fc region SN 2 of FIG. 13 (IgG1 256P/433S/434H) (other)
chain: PCPAPELLGGPSVFLFPPKPKDTLMISRPPEVTCVVVDVSHEDPEVKFNWYVDGVEVHNAKTKPREEQYNSTYRVVSVLTVLHQDWLNGKEYKCKVSNKALPAPIEKTISKAKGQPREPQVYTLPPSRDELTKNQVSLTCLVKGFYPSDIAVEWESNGQPENNYKTTPPVLDSDGSFFLYSKLTVDKSRWQQGNVFSCSVMHEALSHHYTQKSLSLSPGK
B4: Fc region SN 92 of FIG. 13 (IgG1 256A/436F/440M) (other)
chain: PCPAPELLGGPSVFLFPPKPKDTLMISRAPEVTCVVVDVSHEDPEVKFNWYVDGVEVHNAKTKPREEQYNSTYRVVSVLTVLHQDWLNGKEYKCKVSNKALPAPIEKTISKAKGQPREPQVYTLPPSRDELTKNQVSLTCLVKGFYPSDIAVEWESNGQPENNYKTTPPVLDSDGSFFLYSKLTVDKSRWQQGNVFSCSVMHEALHNHFTQKMLSLSPGK
B5: Fc region SN 9 of FIG. 13 (IgG1 256P/433V/434H) (other)
chain: PCPAPELLGGPSVFLFPPKPKDTLMISRPPEVTCVVVDVSHEDPEVKFNWYVDGVEVHNAKTKPREEQYNSTYRVVSVLTVLHQDWLNGKEYKCKVSNKALPAPIEKTISKAKGQPREPQVYTLPPSRDELTKNQVSLTCLVKGFYPSDIAVEWESNGQPENNYKTTPPVLDSDGSFFLYSKLTVDKSRWQQGNVFSCSVMHEALVHHYTQKSLSLSPGK
B6: Fc region SN 10 of FIG. 13 (IgG1 256P/433V/434H/440R) (other)
chain: PCPAPELLGGPSVFLFPPKPKDTLMISRPPEVTCVVVDVSHEDPEVKFNWYVDGVEVHNAKTKPREEQYNSTYRVVSVLTVLHQDWLNGKEYKCKVSNKALPAPIEKTISKAKGQPREPQVYTLPPSRDELTKNQVSLTCLVKGFYPSDIAVEWESNGQPENNYKTTPPVLDSDGSFFLYSKLTVDKSRWQQGNVFSCSVMHEALVHHYTQKRLSLSPGK
B7: Fc region SN 46 of FIG. 13 (IgG1 256P/433V/434R) (other)
chain: PCPAPELLGGPSVFLFPPKPKDTLMISRPPEVTCVVVDVSHEDPEVKFNWYVDGVEVHNAKTKPREEQYNSTYRVVSVLTVLHQDWLNGKEYKCKVSNKALPAPIEKTISKAKGQPREPQVYTLPPSRDELTKNQVSLTCLVKGFYPSDIAVEWESNGQPENNYKTTPPVLDSDGSFFLYSKLTVDKSRWQQGNVFSCSVMHEALVRHYTQKSLSLSPGK
B8: Recombinant human TRIM21 PRYSPRY domain (His-tagged, expressed in E. coli BL21 (DE3)) (receptor)
chain: VHITLDPDTANPWLILSEDRRQVRLGDTQQSIPGNEERFDSYPMVLGAQHFHSGKHYWEVDVTGKEAWDLGVCRDSVRRKGHFLLSSKSGFWTIWLWNKQKYEAGTYPQTPLHLQVPPCQVGIFLDYEAGMVSFYNITDHGSLIYSFSECAFTGPLRPFFSPGFNDGGKNTAPLTLCPLNIGSQGSTDY
modifications: biotinylated when used as bait for biopanning and in the ELISAs (sites not given)
notes: Purified on Ni-NTA and by gel filtration; Analyte in SPR; biotinylated form used in biopanning and ELISA; also called PRYSPRY domain of TRIM21; bait protein; not shown: N-terminal His-tag of the pQE-2 vector
B9: modified Fc (other)
Fc polypeptide (CH2-CH3): PCPAPELLGGPSVFLFPPKPKDTLMISRPPEVTCVVVDVSHEDPEVKFNWYVDGVEVHNAKTKPREEQYNSTYRVVSVLTVLHQDWLNGKEYKCKVSNKALPAPIEKTISKAKGQPREPQVYTLPPSRDELTKNQVSLTCLVKGFYPSDIAVEWESNGQPENNYKTTPPVLDSDGSFFLYSKLTVDKSRWQQGNVFSCSVMHEALTRHFTQKILSLSPGK
notes: also called PN04-90 Fc

molecular target: B8; test: SPR as in Example 1.10, TRIM21 PRYSPRY domain;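 note: antibodies amine-coupled to a GLC chip on a ProteON XPR36, TRIM21 flowed at five concentrations in PBS with 0.05% Tween-20, kinetics fitted to a Langmuir 1:1 model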

Row | Binder | Kd [pM] | koff [s⁻¹] | kon [M⁻¹ s⁻¹]
1 | B1 | 55 | 0.000388 | 7.05e+06
2 | B2 | 498 | 0.00053 | 1.06e+06
3 | B3 | 156 | 0.000727 | 4.66e+06
4 | B4 | 3680 | 0.0145 | 3.94e+06
5 | B5 | 95.7 | 0.000481 | 5.03e+06
6 | B6 | 892 | 0.00046 | 515000
7 | B7 | 169 | 0.000124 | 730000

molecular target: T1, Wildtype IgG1 Fc (reference in the SPR table of Example 4) (human, UniProt P0DOX5 230-449 = IgG part, limits assumed); test: SPR as in Example 1.10, TRIM21 PRYSPRY domain;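 note: antibodies amine-coupled to a GLC chip on a ProteON XPR36, TRIM21 flowed at five concentrations in PBS with 0.05% Tween-20, kinetics fitted to a Langmuir 1:1 model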
T1 construct: also called wildtype Fc

Row | Binder | Kd [pM] | koff [s⁻¹] | kon [M⁻¹ s⁻¹]
8 | B8 | 126000 | 0.0812 | 647000

molecular target: B8; test: ELISA, 0.125 µg/ml biotinylated PRYSPRY domain

Row | Binder | binding result
9 | B9 | binds
